Experimental data as given in US20090175847A1.

What was measured:
Aβ(1-42) fibrils (human) = Aβ(1-42) fibrils (human) (UniProt P05067); assay: co-pelleting with Aβ(1-42) fibrils (20 h, 37 °C), SDS-PAGE, densitometry of the antibody heavy chain in pellet and supernatant
[1] = target: Aβ(1-42) globulomer (human) (UniProt P05067); assay: dot blot densitometry; antigen: Aβ(1-42) globulomer
Aβ(1-42) monomer (human) [2] = assay: dot blot densitometry; antigen: Aβ(1-42) monomer, 0.1% NH4OH
Aβ(1-42) monomer (human) [3] = assay: dot blot densitometry; antigen: Aβ(1-42) monomer, 0.1% NaOH

Sequence of Aβ(1-42) fibrils (human) (P05067 672-713 limits assumed): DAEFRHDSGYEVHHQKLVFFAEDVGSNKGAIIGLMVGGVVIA
Sequence of Aβ(1-42) monomer (human) (peptide, as listed by the source): as the sequence (P05067 672-713 limits assumed) above
Sequence of Aβ(1-42) globulomer (human) (P05067 672-713 limits assumed): as above

antibody bound to fibrils [%] (Aβ(1-42) fibrils (human))	relation between recognition of Aβ(20-42) globulomer and the respective Aβ form [1]	relation between recognition of Aβ(20-42) globulomer and the respective Aβ form (Aβ(1-42) monomer (human) [2])	relation between recognition of Aβ(20-42) globulomer and the respective Aβ form (Aβ(1-42) monomer (human) [3])	Substance
9%				IgG2a antibody isotype control made against KLH (Keyhole Limpet Hemocyanin)
91%	0.02	1	1	mouse monoclonal antibody 6E10 (Signet No 9320)
